Results published in PMC5658623.

Target: PhaPTD from Halomonas bluephagenesis TD01 (Halomonas bluephagenesis TD01)
Assay: SEC-MALS; Superdex 200 gel filtration connected to an eighteen-angle static light scattering system (DAWN HELEOS II); HBS buffer (1.5 mM Na2HPO4, 50 mM HEPS, 150 mM NaCl); sample at 1 mg/mL; 0.5 mL/min; 16°C

Substance: PhaPTD from Halomonas bluephagenesis TD01 (natural protein)
- stoichiometry N: 3
